Laboratory results: the supplement of paper PMC11246515
± gives the standard deviation of the averaged measurements.

Assay: total protein half-life in vivo (active degradation + dilution); higher = more stable protein
[1] = E. coli NCM3722 delta-clpP delta-lon delta-hslV, growth: N-lim chemostat, doubling time 6 h
[2] = E. coli NCM3722 delta-clpP, growth: N-lim chemostat, doubling time 6 h
[3] = E. coli NCM3722 delta-hslV, growth: N-lim chemostat, doubling time 6 h
[4] = E. coli NCM3722 delta-lon, growth: N-lim chemostat, doubling time 6 h
[5] = E. coli NCM3722 delta-smpB, growth: N-lim chemostat, doubling time 6 h
[6] = wild type E. coli NCM3722, growth: C-lim chemostat, doubling time 3 h
[7] = wild type E. coli NCM3722, growth: C-lim chemostat, doubling time 6 h
[8] = wild type E. coli NCM3722, growth: C-lim chemostat, doubling time 12 h
[9] = wild type E. coli NCM3722, growth: N-lim chemostat, doubling time 6 h
[10] = wild type E. coli NCM3722, growth: N-lim chemostat, doubling time 12 h
[11] = wild type E. coli NCM3722, growth: P-lim chemostat, doubling time 6 h
[12] = wild type E. coli NCM3722, growth: P-lim chemostat, doubling time 12 h

| Sequence | total protein half-life in vivo [1] [h] | total protein half-life in vivo [2] [h] | total protein half-life in vivo [3] [h] | total protein half-life in vivo [4] [h] | total protein half-life in vivo [5] [h] | total protein half-life in vivo [6] [h] | total protein half-life in vivo [7] [h] | total protein half-life in vivo [8] [h] | total protein half-life in vivo [9] [h] | total protein half-life in vivo [10] [h] | total protein half-life in vivo [11] [h] | total protein half-life in vivo [12] [h] |
| --- | --- | --- | --- | --- | --- | --- | --- | --- | --- | --- | --- | --- |
| MPSFDIVSEVDLQEARNAVDNASREVESRFDFRNVEASFELNDASKTIKVLSESDFQVNQLLDILRAKLLKRGIEGSSLDVPENIVHSGKTWFVEAKLKQGIESATQKKIVKMIKDSKLKVQAQIQGDEIRVTGKSRDDLQAVMAMVRGGDLGQPFQFKNFRD [P0A8E7] | 6.17 ± 0.16 | 6.38 ± 1 | 5.06 ± 0.27 | 6.83 ± 0.4 | 5.85 ± 0.38 | 3.18 ± 0.28 | 6.22 ± 1.1 | 10.7 ± 0.25 | 4.32 ± 0.57 | 8.82 ± 1 | 5.06 ± 1.4 | 12.7 ± 1.6 |
| MKKLQIAVGIIRNENNEIFITRRAADAHMANKLEFPGGKIEMGETPEQAVVRELQEEVGITPQHFSLFEKLEYEFPDRHITLWFWLVERWEGEPWGKEGQPGEWMSLVGLNADDFPPANEPVIAKLKRL | 4.64 ± 0.53 |  | 4.58 ± 0.57 | 5.1 | 5.16 ± 1.3 | 3.35 ± 0.21 | 5.04 ± 0.078 | 9.03 ± 0.32 | 4.16 ± 0.41 | 6.87 ± 0.51 | 4.48 ± 0.6 | 11 ± 1.5 |
| MAQFVYTMHRVGKVVPPKRHILKNISLSFFPGAKIGVLGLNGAGKSTLLRIMAGIDKDIEGEARPQPDIKIGYLPQEPQLNPEHTVRESIEEAVSEVVNALKRLDEVYALYADPDADFDKLAAEQGRLEEIIQAHDGHNLNVQLERAADALRLPDWDAKIANLSGGERRRVALCRLLLEKPDMLLLDEPTNHLDAESVAWLERFLHDFEGTVVAITHDRYFLDNVAGWILELDRGEGIPWEGNYSSWLEQKDQRLAQEASQEAARRKSIEKELEWVRQGTKGRQSKGKARLARFEELNSTEYQKRNETNELFIPPGPRLGDKVLEVSNLRKSYGDRLLIDDLSFSIPKGAIVGIIGPNGAGKSTLFRMISGQEQPDSGTITLGETVKLASVDQFRDSMDNSKTVWEEVSGGLDIMKIGNTEMPSRAYVGRFNFKGVDQGKRVGELSGGERGRLHLAKLLQVGGNMLLLDEPTNDLDIETLRALENALLEFPGCAMVISHDRWFLDRIATHILDYQDEGKVEFFEGNFTEYEEYKKRTLGADALEPKRIKYKRIAK [P0A9W3] | 4.99 ± 0.079 | 5.16 ± 1.3 | 4.696 ± 0.0076 | 4.99 ± 0.28 | 4.57 ± 0.13 | 3.142 ± 0.022 | 5.61 ± 0.25 | 10.3 ± 0.59 | 4.514 ± 0.025 | 7.31 ± 0.33 | 5.748 ± 0.023 | 11.6 ± 0.28 |
| MEKKLPRIKALLTPGEVAKRSGVAVSALHFYESKGLITSIRNSGNQRRYKRDVLRYVAIIKIAQRIGIPLATIGEAFGVLPEGHTLSAKEWKQLSSQWREELDRRIHTLVALRDELDGCIGCGCLSRSDCPLRNPGDRLGEEGTGARLLEDEQN [P0ACS2] | 4.33 ± 0.31 | 1.34 |  | 2.45 | 1.49 |  | 2.35 | 3.19 ± 0.38 | 1.33 |  |  |  |
| MLRHITFTVFITTSMNTLATGMVPETSVLLVDEKRGEASINIKNTDDHPSLLYTTIVDLPESNKSIRLIPTQPVIRVEAGQVQQVRFLLQATVPLQSEELKRVTFEGIPPKDDKSSRVTVSIRQDLPVLIHPASLPEERETWKFLEWRKNGDQIEISNPSNYVVRMTLQFKTLPSGKTGAINKTYFLPHTSTTTALTNATDTKVEFYPASRYGYRGNKYVTDLK |  |  |  |  |  |  |  |  |  |  | 4.81 |  |
| MSDNLPWKTWTPDDLAPPQAEFVPIVEPEETIIEEAEPSLEQQLAQLQMQAHEQGYQAGIAEGRQQGHKQGYQEGLAQGLEQGLAEAKSQQAPIHARMQQLVSEFQTTLDALDSVIASRLMQMALEAARQVIGQTPTVDNSALIKQIQQLLQQEPLFSGKPQLRVHPDDLQRVDDMLGATLSLHGWRLRGDPTLHPGGCKVSADEGDLDASVATRWQELCRLAAPGVV |  |  |  |  |  | 2.19 ± 0.17 | 3.64 ± 0.27 | 5.33 ± 0.28 |  |  |  |  |
| MSNLTYLQGYPEQLLSQVRTLINEQRLGDVLAKRYPGTHDYATDKALWQYTQDLKNQFLRNAPPINKVMYDNKIHVLKNALGLHTAVSRVQGGKLKAKVEIRVATVFRNAPEPFLRMIVVHELAHLKEKEHNKAFYQLCCHMEPQYHQLEFDTRLWLTQLSLGQNKI | 5.45 ± 0.29 | 1.98 ± 0.15 | 1.16 |  | 1.71 | 3.09 | 1.64 ± 0.58 | 5.13 | 1.78 | 1.54 ± 0.21 | 1.84 ± 0.49 | 2.74 ± 0.62 |
| MRLEFSIYRYNPDVDDAPRMQDYTLEADEGRDMMLLDALIQLKEKDPSLSFRRSCREGVCGSDGLNMNGKNGLACITPISALNQPGKKIVIRPLPGLPVIRDLVVDMGQFYAQYEKIKPYLLNNGQNPPAREHLQMPEQREKLDGLYECILCACCSTSCPSFWWNPDKFIGPAGLLAAYRFLIDSRDTETDSRLDGLSDAFSVFRCHSIMNCVSVCPKGLNPTRAIGHIKSMLLQRNA | 6.38 ± 1.4 | 5.1 ± 0.12 | 5.6 ± 0.19 | 5.16 ± 1.2 | 5.06 ± 0.28 | 3.17 ± 0.81 | 6.28 ± 0.13 | 11.9 ± 0.33 | 5.22 ± 0.7 | 10.7 ± 0.97 | 5.138 ± 0.038 | 10.5 ± 0.14 |
| MQKAQRIIKTYRRNRMIVCTICALVTLASTLSVRFISQRNLNQQRVVQFANHAVEELDKVLLPLQAGSEVLLPLIGLPCSVAHLPLRKQAAKLQTVRSIGLVQDGTLYCSSIFGYRNVPVVDILAELPAPQPLLRLTIDRALIKGSPVLIQWTPAAGSSNAGVMEMINIDLLTAMLLEPQLPQISSASLTVDKRHLLYGNGLVDSLPQPEDNENYQVSSQRFPFTINVNGPGATALAWHYLPTQLPLAVLLSLLVGYIAWLATAYRMSFSREINLGLAQHEFELFCQPLLNARSQQCIGVEILLRWNNPRQGWISPDVFIPIAEEHHLIVPLTRYVMAETIRQRHVFPMSSQFHVGINVAPSHFRRGVLIKDLNQYWFSAHPIQQLILEITERDALLDVDYRIARELHRKNVKLAIDDFGTGNSSFSWLETLRPDVLKIDKSFTAAIGSDAVNSTVTDIIIALGQRLNIELVAEGVETQEQAKYLRRHGVHILQGYLYAQPMPLRDFPKWLAGSQPPPARHNGHITPIMPLR | 4.94 | 2.57 |  |  |  |  |  |  |  |  |  |  |
| MKYDTSELCDIYQEDVNVVEPLFSNFGGRASFGGQIITVKCFEDNGLLYDLLEQNGRGRVLVVDGGGSVRRALVDAELARLAVQNEWEGLVIYGAVRQVDDLEELDIGIQAMAAIPVGAAGEGIGESDVRVNFGGVTFFSGDHLYADNTGIILSEDPLDIE [P0A8R0] | 5.37 ± 0.18 | 5.11 ± 0.26 | 5.16 ± 0.12 | 4.57 ± 0.28 | 4.26 ± 0.1 | 3.25 ± 0.3 | 6.31 ± 1.1 | 13.4 ± 0.22 | 5.06 ± 0.22 | 8.11 ± 0.27 | 6.02 ± 0.41 | 12.7 ± 1.7 |
| MIVTIVGWLVLFVFLPNLMIIGTSFLTRDDASFVKMVFTLDNYTRLLDPLYFEVLLHSLNMALIATLACLVLGYPFAWFLAKLPHKVRPLLLFLLIVPFWTNSLIRIYGLKIFLSTKGYLNEFLLWLGVIDTPIRIMFTPSAVIIGLVYILLPFMVMPLYSSIEKLDKPLLEAARDLGASKLQTFIRIIIPLTMPGIIAGCLLVMLPAMGLFYVSDLMGGAKNLLIGNVIKVQFLNIRDWPFGAATSITLTIVMGLMLLVYWRASRLLNKKVELE [P0AFK4] | 4.04 ± 3 |  |  |  | 5.57 ± 0.42 |  | 5.93 | 9.29 ± 5.5 | 5.03 |  | 2.09 | 6.6 |
| MSRFIPIELHHASRLLNHGPTVLITSFDEQSQRRNIMAAAWSMPVEFEPPRVAIVVDKSTWTRELIEHNGKFGIVIPGVAATNWTWAVGSVSGRDEDKFNCYGIPVVRGPVFGLPLVEEKCLAWMECRLLPATSAQEEYDTLFGEVVSAAADARVFVEGRWQFDDDKLNTLHHLGAGTFVTSGKRVTAG | 5.07 ± 0.36 | 4.49 ± 0.06 | 4.12 ± 0.3 | 4.25 ± 0.39 | 4.19 ± 0.066 | 2.96 ± 0.065 | 4.15 ± 0.89 | 9.97 ± 0.71 | 4.27 ± 0.46 | 6.92 ± 0.15 | 5.45 ± 0.67 | 10.4 ± 0.57 |
| MLLPWLILIPFIGGFLCWQTERFGVKVPRWIALITMGLTLALSLQLWLQGGYSLTQSAGIPQWQSEFDMPWIPRFGISIHLAIDGLSLLMVVLTGLLGVLAVLCSWKEIEKYQGFFHLNLMWILGGVIGVFLAIDMFLFFFFWEMMLVPMYFLIALWGHKASDGKTRITAATKFFIYTQASGLVMLIAILALVFVHYNATGVWTFNYEELLNTPMSSGVEYLLMLGFFIAFAVKMPVVPLHGWLPDAHSQAPTAGSVDLAGILLKTAAYGLLRFSLPLFPNASAEFAPIAMWLGVIGIFYGAWMAFAQTDIKRLIAYTSVSHMGFVLIAIYTGSQLAYQGAVIQMIAHGLSAAGLFILCGQLYERIHTRDMRMMGGLWSKMKWLPALSLFFAVATLGMPGTGNFVGEFMILFGSFQVVPVITVISTFGLVFASVYSLAMLHRAYFGKAKSQIASQELPGMSLRELFMILLLVVLLVLLGFYPQPILDTSHSAIGNIQQWFVNSVTTTRP [P0AFE8] | 7.36 ± 0.89 | 6.54 ± 0.28 | 5.66 ± 0.85 | 6.41 ± 0.17 | 6.818 ± 0.033 |  |  |  |  | 12.04 ± 0.017 | 6.24 ± 0.25 |  |
